Measurements from patent US20150218285A1 (TORAY INDUSTRIES, published 2015).
Where a chain is given by its changes, count along the chain named.

Tests used:
[1] = target: T1, CAPRIN-1 protein on the cell surface of human cancer cells (human, UniProt Q14444 2-709); assay: cell-based or functional assay
T1 sequence (looked up): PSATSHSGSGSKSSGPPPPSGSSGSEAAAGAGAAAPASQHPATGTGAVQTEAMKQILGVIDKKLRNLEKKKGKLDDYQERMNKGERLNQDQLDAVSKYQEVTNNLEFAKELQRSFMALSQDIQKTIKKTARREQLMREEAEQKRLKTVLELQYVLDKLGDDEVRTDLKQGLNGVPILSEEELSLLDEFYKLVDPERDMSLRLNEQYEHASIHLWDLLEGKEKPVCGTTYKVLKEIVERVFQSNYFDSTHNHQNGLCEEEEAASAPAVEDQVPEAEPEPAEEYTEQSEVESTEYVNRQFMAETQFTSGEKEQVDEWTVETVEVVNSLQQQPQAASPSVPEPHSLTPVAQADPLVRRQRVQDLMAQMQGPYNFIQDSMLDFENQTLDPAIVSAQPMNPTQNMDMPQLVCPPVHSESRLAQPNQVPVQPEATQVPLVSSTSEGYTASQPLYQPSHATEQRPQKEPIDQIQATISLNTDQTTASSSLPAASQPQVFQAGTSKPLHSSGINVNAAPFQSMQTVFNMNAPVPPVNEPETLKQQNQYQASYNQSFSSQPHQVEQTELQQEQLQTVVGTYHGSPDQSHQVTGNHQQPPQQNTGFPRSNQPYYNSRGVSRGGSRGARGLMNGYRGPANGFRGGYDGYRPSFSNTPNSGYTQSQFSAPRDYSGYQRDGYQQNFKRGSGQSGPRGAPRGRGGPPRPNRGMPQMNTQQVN

[2] = target: T1, CAPRIN-1 protein on the cell surface of …; assay: flow cytometry on Hep3B, HepG2, SK-Hep-1, SW480; culture supernatant; vs isotype control
Description: Subsequently, four liver cancer cell lines (Hep3 GB, HepG2, SK-Hep-1, and SW480), which were confirmed to express a CAPRIN-1 gene, were investigated for whether or not a CAPRIN-1 protein is expressed on the surfaces of these cells. 1×10⁶ cells of each cell line were centrifuged with a 1.5-mL micro centrifugation tube. To the cells was added the culture supernatant (100 μL) containing any of mouse monoclonal antibodies #1 to #22 against a CAPRIN-1 protein reacting to cancer cell surface produced in Example 4 and mouse-chicken chimeric antibodies #1 to #3 against a CAPRIN-1 protein produced in the above (2), followed by being left to stand on ice for 1 hour. After washing with PBS, the cells were suspended in a FITC-labeled goat anti-mouse IgG antibody (manufactured by Invitrogen Corporation) diluted by 500-fold with PBS containing 0.1% FBS, followed by being left to stand on ice for 1 hour. After washing with PBS, the fluorescence intensity was measured with FACS Calibur available from Becton, Dickinson and Company. Separately, as a control, the same procedure as in above was performed using an iso-type control antibody, instead of the culture supernatants containing the mouse monoclonal antibodies #1 to #22 against a CAPRIN-1 protein and the mouse-chicken chimeric antibodies #1 to #3. As a result, the fluorescence intensity in the cells to which any of the monoclonal antibodies #1 to #22 and the mouse-chicken chimeric antibodies #1 to #3 was added was 20% or more higher than that in the control in every case. Specifically, in the case of using mouse-chicken chimeric antibody #1, the fluorescence intensity was enhanced by 200% or more in both SK-Hep-1 and Hep3B. […] The rate of increase in the fluorescence intensity is represented by the rate of increase in the mean fluorescence intensity (MFI value) in each cell and is calculated by the following calculation formula: […]

B1: human-mouse chimeric anti-CAPRIN-1 antibody #26 (antibody, human IgG1, kappa)
heavy: not shown
light: PASSSDVLMTQTPLSLPVRLGDQSSISCRSSQSIVHSNGNTYLEWYLQKPGQSPKLLIYKVSNRFSGVPDRFSGSGSGTDFTLKISRVEPEDLGVYYCFQGSHVPYTSEGDQAEIKLATVAAPSVFIFPPSDEQLKSGTASVVCLLNNFYPREAKVQWKVDNALQSGNSQESVTEQDSKDSTYSLSSTLTLSKADYEKHKVYACEVTHQGLSSPVTKSFNRGEC
[1]
  ADCC activity on Hep3B, HepG2, SK-Hep-1, SW480: ≥ 20%

B2: human-mouse chimeric anti-CAPRIN-1 antibody #34 (antibody, human IgG1, kappa, V domains shown)
VH: GAELVRPGTSVKVSCKASVYAFTNYLIEWVKQRPGQGLEWIGVINPKSGGTKYNEKFRGKATLTADKSSSTAYMQLSSLTSGDSAVYFCAITGTDYWGQGTTLTVSS
VL: QGTRCDIQMTQTTSSLSASLGDRVTISCSASQGINNYLNWYQQKPDGTVKLLIYYTSSLRSGVPSRFSGSGSGTDYSLTISNLEPEDVATYYCQQYSKLPRTFGGGTKLEIKR
[1]
  cytotoxicity (ADCC, 51Cr release, human NK cells) on Hep3B, HepG2, SK-Hep-1, SW480: ≥ 20%

B3: human-mouse chimeric anti-CAPRIN-1 antibody #25 (antibody, human IgG1, kappa, V domains shown)
VH: GPGLVQPSQSLSITCTVSGFSLTTYDLHWVRQSPGKGLEWLGVIWSGGSTDYNAAFISRLSISKDNSKSQVFFKMNSLQANDTAIYYCARNYGYSAWFAYWGQGTLVTVSA
VL: DVLMTQTPLSLPVSLGDQASISCRSSQSIVHSNGNTYLEWYLQKPGQSPKLLIYKVSNRFSGVPDRFSGSGSGTDFTLKISRVEAEDLGVYYCFQGSHVPLTFGAGTKLELKR
[1]
  ADCC activity on Hep3B, HepG2, SK-Hep-1, SW480: ≥ 20%

B4: human-mouse chimeric anti-CAPRIN-1 antibody #27 (antibody, human IgG1, kappa, V domains shown)
VH: GGGLVQPGGSMRLSCVASGFTFSNSWFNWVRQSPEKGLEWVAEIRLTSDNYAIYYAESVKGRFTISRDDSKSSVYLQMNNLRAEDTGIYYCTRPETARATFAYWGQGTTVTVSS
VL: B3 VL with L51V, S57F, L101R, A105G, E110N, L111Q, K112T, R113G
[1]
  ADCC activity on Hep3B, HepG2, SK-Hep-1, SW480: ≥ 20%

B5: human-mouse chimeric anti-CAPRIN-1 antibody #23 (antibody, human IgG1, kappa, V domains shown)
VH: GGGLVKPGGSLKLSCAASGFTFSSYGMSWVRQTPEKRLEWVATISSGGSYTYYPDSVKGRFTISRDNAKNTLYLQMSSLRSEDTAMYYCASLASYYFDYWGQGTTLTVSS
VL: GARCDVQMIQSPSSLSASLGDIVTMTCQASQGTSINLNWFQQKPGKAPKLLIYGASSLEDGVPSRFSGSCFGTDFTLTISSLEDEDMATYFCLQHSYLPPLTFGAGTKLELKR
[1]
  ADCC activity on Hep3B, HepG2, SK-Hep-1, SW480: ≥ 20%

B6: human-mouse chimeric anti-CAPRIN-1 antibody #24 (antibody, human IgG1, kappa, V domains shown)
VH: B5 VH
VL: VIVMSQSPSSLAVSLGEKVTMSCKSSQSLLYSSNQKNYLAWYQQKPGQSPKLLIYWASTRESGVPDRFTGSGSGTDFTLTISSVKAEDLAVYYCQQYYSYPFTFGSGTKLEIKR
[1]
  ADCC activity on Hep3B, HepG2, SK-Hep-1, SW480: ≥ 20%

B7: mouse-chicken chimeric antibody #1 (antibody, mouse IgG1, V domains shown)
VH: AVTLDESGGGLQMSRGGLSLVCKASGFDFSSYQMNWIRQAPGKGLEFVAAINKFGNSTGHGAAVKGRVTISRDNGQSTVRLQLNNLRAEDTAIYFCTKHAYGYCGSGTWCAAGEIDAWGHGTEVIVSS
VL: QAASTQPSSVSANPGETVEITCSGGGSYSYGWFQQKSPGSAPVTVIYYNNKRPSDIPSRFSGSKSGSTGTLTITGVQADDEAVYYCGSGDSTDTAVFGAGTTLTVLG
[2]
  rate of increase in mean fluorescence intensity: ≥ 20%

B8: human-mouse chimeric anti-CAPRIN-1 antibody #28 (antibody, human IgG1, kappa, V domains shown)
VH: GPDLVKPGASVKISCKASGYSFTAYYMHWVKQSHGKSLEWIGRVNPNNGGTTYNQKFKGKAILTVDKSSSTAYMELRSLTFEDSAVYYCARRIYYGYFDYWGQGTTVTVSS
VL: AFFAVSLGQRATISCKASQSVDYDGDSYMNWYQQKPGQPPKLLIYVASNLESGVPARFSGSGSGTDFTLNIHPVEEEDAATYYCQQSNEDPYTFGGGTKLEIKQ
[1]
  ADCC activity on Hep3B, HepG2, SK-Hep-1, SW480: ≥ 20%

B9: human-mouse chimeric anti-CAPRIN-1 antibody #29 (antibody, human IgG1, kappa)
heavy: not shown
light: GTCGDIVMSQSPSSLAVSAGEKVTMSCKSSQSLLNSRTRKNYLAWVQHKPGQSPRLLIYWASTRESGVPDRFTGSGSGTDFTLTISSVQAEDLAVYYCRQSYNLVTFGAGPSTVAAPSVFIFPPSDEQLKSGTASVVCLLNNFYPREAKVQWKVDNALQSGNSQESVTEQDSKDSTYSLSSTLTLSKADYEKHKVYACEVTHQGLSSPVTKSFNRGEC
[1]
  ADCC activity on Hep3B, HepG2, SK-Hep-1, SW480: ≥ 20%

B10: mouse monoclonal antibody #8 (antibody, V domains shown)
VH: GGGLVKPGGSLKLSCAASGFAFSSYDMSWIRQTPEKRLEWVAYISSGAGSTYYPDTVKGRFTVSRDNAKNTLYLQMSSLKSEDTAMYYCARHFYRFDYWGQGTTVTVSS
VL: SIVMTQTPKFLLVSAGDRITITCKASQSVSNDVAWYQQKPGQSPKLLIYYASNRYTGVPDRFTGSGYGTDFTFTISTVQAEDLAVYFCQQDDRFPLTFGAGPS
notes: mouse hybridoma antibody; also called anti-CAPRIN-1 monoclonal antibody #8
[2]
  rate of increase in mean fluorescence intensity: ≥ 20%
[1]
  cytotoxicity (ADCC, 51Cr release) on SK-Hep-1: ≥ 12%

B11: human-chicken chimeric antibody #2 (antibody, human IgG1, kappa, V domains shown)
VH: AVTLDESGGGLQTPGGGLSLVCKASGFTFSSFDMGWVRQAPGKGLEFVAQINDAGSRTWYATAVKGRATISRDNGQTTVRLQLNNLRAEDTGTYYCTRGSGYVGAGAIDAWGHGTEVIVSA
VL: AALTQPSSVSANPGETVKITCSGGSGYYGWYQQQKSPGSAPVTVIYQNDKRPSDIPSRFSGSGSGSTNTLTITGVQAEDEAVYFCGRYDSTDSGIFGAGTTLTVLT
[1]
  cytotoxicity (ADCC, 51Cr release) on SK-Hep-1: ≥ 12%

B12: mouse-chicken chimeric antibody #3 (antibody, mouse IgG1, V domains shown)
VH: AVTLDESGGGLQTPGGALSLVCKASGFTFSGYDMLWVRQAPGKGLEWVAGIGSTGGGTDYGAAVKGRATISRDNGQSTVRLQLNNLRAEDTATYYCAKVAGGCNSGYCRDSPGSIDAWGHGTEVIVS
VL: AVTQQPASVSANPGETVKITCSGGGSRNYYGWYQQKSPGSVPVTVIYYDDQRPSNIPSRFSGALSGSTSTLTITGVQADDEAVYFCGSADSNTYEGSFGAGTTLTVL
[2]
  rate of increase in mean fluorescence intensity: ≥ 20%

B13: mouse-chicken chimeric antibody #2 (antibody, mouse IgG1, V domains shown)
VH: AVTLDESGGGLQTPGGGLSLVCKASGFTFSSFDMGWVRQAPGKGLEFVAQINDAGSRTWYATAVKGRATISRDNGQTTVRLQLNNLRAEDTGTYYCTRGSGYVGAGAIDAWGHGTEVIVS
VL: AALTQPSSVSANPGETVKITCSGGSGYYGWYQQQKSPGSAPVTVIYQNDKRPSDIPSRFSGSGSGSTNTLTITGVQAEDEAVYFCGRYDSTDSGIFGAGTTLTVL
[2]
  rate of increase in mean fluorescence intensity: ≥ 20%

B14: mouse monoclonal antibody #6 (antibody)
chain 1: DAELVKPGASVKISCKASGYTFTDHSIHWVQQKPEQGLEWIGYISPGNGNIKYNEKFKGKATLTADKSSSTAYMQLNSLTSEDSAVYFCKRSLGRGGPYYFDYWGQGTTVTVSS
chain 2: DIVLTQAAPSLPVTPGESVSISCRSSKSLLHSNGNTYLYWFLQRPGQSPQLLIYRMSNLASGVPDRFSGSGSGTAFTLRISRVEAEDVGVYYCMQHREYPVTFGSGPN
[2]
  rate of increase in mean fluorescence intensity: ≥ 20%
[1]
  cytotoxicity (ADCC, 51Cr release) on SK-Hep-1: ≥ 12%

B15: human-mouse chimeric anti-CAPRIN-1 antibody #30 (antibody)
heavy: not shown
light: DVQITQSPSYLAASPGETITINCRASKSISKYLAWYQEKPGKTNKLLIYSGSTLQSGIPSRFSGSGSGTDFTLTISSLEPEDFAMYYCQQHNEYPYTFGGGTKLEIKRTVAAPSVFIFPPSDEQLKSGTASVVCLLNNFYPREAKVQWKVDNALQSGNSQESVTEQDSKDSTYSLSSTLTLSKADYEKHKVYACEVTHQGLSSPVTKSFNRGEC
[1]
  cytotoxicity (ADCC, 51Cr release, human NK cells) on Hep3B, HepG2, SK-Hep-1, SW480: ≥ 20%

B16: human-mouse chimeric anti-CAPRIN-1 antibody #31 (antibody, human IgG1, kappa)
heavy: not shown
light: B15 light with Y96W
[1]
  cytotoxicity (ADCC, 51Cr release, human NK cells) on Hep3B, HepG2, SK-Hep-1, SW480: ≥ 20%

B17: human-mouse chimeric anti-CAPRIN-1 antibody #36 (antibody, human IgG1, kappa)
heavy: not shown
light: QDELSNPVTSGESVSISCRSSKSLLYKDGKTYLNWFLQRPGQSPQLLIYLMSTRASGVSDRFSGSGSGTDFTLEISRVKAEDVGVYYCQQLVEDPLTFGAGTKLELKRTVAAPSVFIFPPSDEQLKSGTASVVCLLNNFYPREAKVQWKVDNALQSGNSQESVTEQDSKDSTYSLSSTLTLSKADYEKHKVYACEVTHQGLSSPVTKSFNRGEC
[1]
  cytotoxicity (ADCC, 51Cr release, human NK cells) on Hep3B, HepG2, SK-Hep-1, SW480: ≥ 20%
